{
  "source": "paper PMC3087822",
  "about": "(Nature structural & molecular biology, 2011)",
  "key": {"[1]": {"target": "rat Munc13-1(859–1407,1453–1531) fragment (MUN*) (rat) (UniProt Q62768)", "experiment": "NMR titration"}, "[2]": {"target": "cytoplasmic domain (residues 2–253) of rat syntaxin-1A (rat, UniProt P32851 2-253)", "experiment": "SEC"}},
  "data": [
    {"molecule": "Munc18-1–SNARE complex assembly (Munc18-1 plus SNARE complex as titrated on 15N-MUN*) (from UniProt P32851;P63045;P60880)", "values": [
      {"measurement": "Kd", "setting": "[1]", "value": 13, "unit": "µM"}
    ]},
    {"molecule": "human SNAP25 (residues 11–82) (domain or fragment) LEEMQRRADQLADESLESTRRMLQLVEESKDAGIRTLVMLDEQGEQLERIEEGMDQINKDMKEAEKNLTDLG", "values": [
      {"measurement": "binding result", "setting": "[2]", "value": "binds"}
    ]}
  ]
}
